B1: Control-2 (dsDNA)
DNA 1: GAGGCGTGGC
DNA 2: TTGCCACGCCTC
B2: E-box 12-mer C/5mC (dsDNA)
DNA 1: TGCCACGTGACC
DNA 2: GGTCACGTGGCA
modifications: 5mC at position 6 of strand 2
B3: E-box 12-mer C/5fC (dsDNA)
DNA 1: TGCCACGTGACC
DNA 2: GGTCACGTGGCA
modifications: 5fC at position 6 of strand 2
B4: Control-1 (dsDNA)
DNA 1: GTCAGCGCATGG
DNA 2: CCATGCGCTGAC
B5: E-box 12-mer C/5caC (dsDNA)
DNA 1: TGCCACGTGACC
DNA 2: GGTCACGTGGCA
modifications: 5caC at position 6 of strand 2
B6: E-box 12-mer C/C (dsDNA)
DNA 1: TGCCACGTGACC
DNA 2: GGTCACGTGGCA
B7: E-box 12-mer C/5hmC (dsDNA)
DNA 1: TGCCACGTGACC
DNA 2: GGTCACGTGGCA
modifications: 5hmC at position 6 of strand 2

What was measured:
Assay in all cases: fluorescence polarization
MAX full length [1] = target: T1, MAX full length (Homo sapiens, UniProt P61244 1-160)
T1 sequence (P61244 whole entry): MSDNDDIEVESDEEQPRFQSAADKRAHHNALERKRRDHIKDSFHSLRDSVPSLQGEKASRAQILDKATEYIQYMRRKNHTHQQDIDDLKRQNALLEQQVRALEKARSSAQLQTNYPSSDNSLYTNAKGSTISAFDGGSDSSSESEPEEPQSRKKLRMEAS

MAX H28R = MAX H28R (Homo sapiens, UniProt P61244 1-160, H28R)
MAX H28R, sequence (P61244 whole entry H28R): as the sequence (P61244 whole entry) above, with H28R counted along it

MAX full length [2] = target: T1, MAX full length; remark: listed apart in the source

| Binder | binding result (MAX full length [1]) | Kd (MAX H28R) | binding signal (MAX full length [2]) |
| --- | --- | --- | --- |
| B1 | no binding |  |  |
| B2 |  | < 5 nM | > 13 fold weaker than C |
| B3 |  | < 5 nM | 8 fold weaker than C |
| B4 | no binding |  |  |
| B5 |  | < 5 nM |  |
| B6 |  | < 5 nM |  |
| B7 |  | < 5 nM | > 13 fold weaker than C |

From publication PMC5389568
